The supplement of paper PMC9170038

Tested on: MS2 coat protein
Test: apparent KD of MS2 coat protein; designed switch direction (-1 OFF switch, 1 ON switch): 1; higher = weaker reporter binding
How it was run: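 For each design, the apparent KD is the median over clusters of curves fitted to normalised cluster fluorescence. Clusters held RNA switches with common flanks, transcribed on Illumina chips by stalled E. coli RNA polymerase. These were titrated with SNAP-549-labelled MS2 coat protein, doubling from 0.7 or 1.5 nM to 3 µM, without input, with 200 uM small-molecule ligand, or with an oligonucleotide input.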

[1] = Eterna round: R95, input ligand: FMN 200 uM
[2] = Eterna round: R95, input ligand: microRNA oligo, concentration not stated
[3] = Eterna round: R95, input ligand: none
[4] = input ligand: microRNA oligo, concentration not stated

Sequence | apparent KD of MS2 coat protein [1] [nM] | apparent KD of MS2 coat protein [2] [nM] | apparent KD of MS2 coat protein [3] [nM] | apparent KD of MS2 coat protein (input ligand: FMN 200 uM) [nM] | apparent KD of MS2 coat protein [4] [nM] | apparent KD of MS2 coat protein (input ligand: none) [nM]
GGUCCAGCCUGAGCUGGACAAGAGCAUGUACAUGAGGAUCACCCAUGUCAUGUACAAGCUUUUUGCUCGUCUUAAAA [JL mod - D87 - 2] (puzzle: Sensor for hsa-mir-208a) | 433 | 14.5 | 540 |  |  | 
GGUCCAGCGAGAGCUGGACAAAAGCAUGUACAUGAGGAUCACCCAUGUCAUGUACAAGCUUUUUGCUCGUCUUAAAA [Mat - Sensor - JL mod - D88] (Eterna round: R96, puzzle: Sensor for hsa-mir-208a) |  |  |  | 556 | 12.9 | 486
GGUCCAUCAUGAGGAUAUGGCACCUUAUUGGUGCCAGAAGGCAUGUAAAUUAUAAUAAAACAUGAGGAUCACCCAUGUUGGACC [Eli NG1ss - 97] (Eterna round: R96, puzzle: Same State NG 1) |  |  |  | 857 | 19.5 | 78.4
GGUCGGAACCACAUGAGGAUCACCCAUGUUCCGGAAACGGCGCAGGAUAUCUGUCCGAAAAGGUCAGAGAAGGGUGAACCGACC [Fiskers NG3ss - 78] (Eterna round: R96, puzzle: Same State NG 3) |  |  |  | 462 | 314 | 236
GGUCGGACUCACAUGAGGAUCACCCAUGUUGCGGAAACGCGACAGGAUAUCUGUCCGAAAAGGUCAGAGAAGGGUCAACCGACC [Fiskers NG3ss - 58] (Eterna round: R96, puzzle: Same State NG 3) |  |  |  | 853 | 431 | 504
GGUGCAAUUAACGCCUACAUGAGGAUCACCCAUGUAUGUAGGCAGGAUAUCGUUUGCAAAGCAAACGAGAAGGGCUAUAGUACC [Mat - Same State NG 3 - JL Mod - D43] (Eterna round: R96, puzzle: Same State NG 3) |  |  |  | 66.9 | 256 | 188
GGUGCGAAUAAAGCCUACAUGAGGAUCACCCAUGUAUGUAGGCAGGAUAUCGUAUGCAAAGCAUACGAGAAGGGCUGUCGCACC [Mat - Same State NG 3 - JL Mod - D47] (Eterna round: R96, puzzle: Same State NG 3) |  |  |  | 30.1 | 56.9 | 85.8
GGUGGGUUACUACCAACACAUGAGGAUCACCCAUGUUUUGGGAAGGAUAUGGUACCUAUUUGGUACCAGAAGGUCCAGUUGGUG [salish99_SSNG3_r04_703] (Eterna round: R96, puzzle: Same State NG 3) |  |  |  | 49.8 | 79.8 | 125
GGUUUAGUCAGGUGCAGUUGCACCUGAAAACAUGAGGAUCACCCAUGUUUGGGACAAGCUUUGCUCCUCGUCUUGCA [Orinen] (puzzle: Sensor for hsa-mir-208a) | 341 | 70.6 | 545 |  |  | 
GUAAAACAUGAGGAUCACCCAUGUAAUAAUAUGGGAGGAUAUGCGAAUUUAAUUAUUUAAGCAGAAGGCCUAAAUG [Mat - Same State 1 - D99] (puzzle: Same State 1) | 21.2 | 172 | 149 |  |  | 
GUAAUAAUGUAAGGAUAUACAUGAGGAUUUCUCGUAGAAGGUACAAGACAUGAGGAUCACCCAUGUGUCGCUCAGAAGAGCGUA [Mat - Same State NG 1 - JL mod - D16] (Eterna round: R96, puzzle: Same State NG 1) |  |  |  | 279 | 158 | 463
GUAAUCGUUAUAGGAUAUCAUGAGGAUUACCCAUGAGAAGGGUGAUCCCGAUCCAUAUUCAGAAAAUGAAUGUGGAUAGAUUGC [Omei NG1 A] (Eterna round: R96, puzzle: Same State NG 1) |  |  |  | 46.8 | 20.6 | 55.4
GUACAGAUCAGAGGAUAUCACGUCGAUUAGACGUGAGAAGGCUGAUCACACAUGAAUAUUAGUACAUGAGGAUCACCCAUGUAC [SSNG1/15-A2] (Eterna round: R96, puzzle: Same State NG 1) |  |  |  | 14 | 12.5 | 16.7
GUAGCAUACCGAGGAUAUUCAAACCGGAAACGGACAUGAGGAUCACCCAUGUGGCGAAAGCCUUGGGAGAAGGCGGAAUGCUAC [Xeonanis - 20 Mod76] (Eterna round: R96, puzzle: Same State NG 2) |  |  |  | 6.08 | 21.7 | 19.1
GUAGCAUACCGAGGAUAUUCAUAUUAUACAUGAGGAUCACCCAUGUUAGGCCGAUUACGGCCUUGGGAGAAGGCGGAAUGCUAC [Xeonanis - 20 Mod20] (Eterna round: R96, puzzle: Same State NG 2) |  |  |  | 21.8 | 53.3 | 75
GUGCUCGUGUAAGGAUAUGCAGCCGUUUCGGCUGCAGAAGGUACUAUAAUACAUGAGGAUCACCCAUGUCUCUUUUGUUUGGUG [salish99_SSNG1_r04_907] (Eterna round: R96, puzzle: Same State NG 1) |  |  |  | 234 | 111 | 222
GUGCUCGUGUGAGGAUAUGCCGCCGUUUCGGCUGCAGAAGGUGCUACGUUACAUGAGGAUCACCCAUGUCUCUGUUGUUUCGUG [salish99_SSNG1_r04_943] (Eterna round: R96, puzzle: Same State NG 1) |  |  |  |  | 17.9 | 
GUGGAGAAUUAAGGAUAUCGAGUCAAGAUGUUAAACAUGAGGAUCACCCAUGUGGGUUGCGGUAUCGAGAAGGUAAAUUACGGG [salish99_SSNG2_r04_504] (Eterna round: R96, puzzle: Same State NG 2) |  |  |  | 28.3 | 25.1 | 34.1
GUGGAGAAUUAAGGAUAUUGAAUACAUAUGUUUAACAUGAGGAUCACCCAUGUGGGUUGCGGUAUCGAGAAGGUAAAUUACUGG [salish99_SSNG2_r04_033] (Eterna round: R96, puzzle: Same State NG 2) |  |  |  | 126 | 74.3 | 110
GUGGAGGGUUGAGGAUAUUGAUUACAUAUGUUUAACAUGAGGAUCACCCAUGUGGGUUGCGGUUUCGAGAAGGUAGGUUGCUGG [salish99_SSNG2_r04_041] (Eterna round: R96, puzzle: Same State NG 2) |  |  |  | 196 | 79.5 | 132
GUGGCGGGUUGAGGAUAUUGGUUGCCGCUGUUUUACAUGAGGAUCACCCAUGUGGGUUGCGGUUUCGAGAAGGGAGGUUGCUGG [salish99_SSNG2_r04_055] (Eterna round: R96, puzzle: Same State NG 2) |  |  |  | 14.2 | 11.7 | 17.6
GUGGCGGGUUGAGGAUAUUGGUUGCCUCUGUUUUACAUGAGGAUCACCCAUGUGGGUUGCGGUUUCGAGAAGGGAGGUUGCUGG [salish99_SSNG2_r04_054] (Eterna round: R96, puzzle: Same State NG 2) |  |  |  | 323 | 420 | 399
